According to IntAct's records for PubMed 25678599:

B1: WW domain-containing oxidoreductase (Homo sapiens), Q9NZC7 (parent)
chain: MAALRYAGLDDTDSEDELPPGWEERTTKDGWVYYANHTEEKTQWEHPKTGKRKRVAGDLPYGWEQETDENGQVFFVDHINKRTTYLDPRLAFTVDDNPTKPTTRQRYDGSTTAMEILQGRDFTGKVVVVTGANSGIGFETAKSFALHGAHVILACRNMARASEAVSRILEEWHKAKVEAMTLDLALLRSVQHFAEAFKAKNVPLHVLVCNAATFALPWSLTKDGLETTFQVNHLGHFYLVQLLQDVLCRSAPARVIVVSSESHRFTDINDSLGKLDFSRLSPTKNDYWAMLAYNRSKLCNILFSNELHRRLSPRGVTSNAVHPGNMMYSNIHRSWWVYTLLFTLARPFTKSMQQGAATTVYCAAVPELEGLGGMYFNNCCRCMPSPEAQSEETARTLWALSERLIQERLGSQSG
partner: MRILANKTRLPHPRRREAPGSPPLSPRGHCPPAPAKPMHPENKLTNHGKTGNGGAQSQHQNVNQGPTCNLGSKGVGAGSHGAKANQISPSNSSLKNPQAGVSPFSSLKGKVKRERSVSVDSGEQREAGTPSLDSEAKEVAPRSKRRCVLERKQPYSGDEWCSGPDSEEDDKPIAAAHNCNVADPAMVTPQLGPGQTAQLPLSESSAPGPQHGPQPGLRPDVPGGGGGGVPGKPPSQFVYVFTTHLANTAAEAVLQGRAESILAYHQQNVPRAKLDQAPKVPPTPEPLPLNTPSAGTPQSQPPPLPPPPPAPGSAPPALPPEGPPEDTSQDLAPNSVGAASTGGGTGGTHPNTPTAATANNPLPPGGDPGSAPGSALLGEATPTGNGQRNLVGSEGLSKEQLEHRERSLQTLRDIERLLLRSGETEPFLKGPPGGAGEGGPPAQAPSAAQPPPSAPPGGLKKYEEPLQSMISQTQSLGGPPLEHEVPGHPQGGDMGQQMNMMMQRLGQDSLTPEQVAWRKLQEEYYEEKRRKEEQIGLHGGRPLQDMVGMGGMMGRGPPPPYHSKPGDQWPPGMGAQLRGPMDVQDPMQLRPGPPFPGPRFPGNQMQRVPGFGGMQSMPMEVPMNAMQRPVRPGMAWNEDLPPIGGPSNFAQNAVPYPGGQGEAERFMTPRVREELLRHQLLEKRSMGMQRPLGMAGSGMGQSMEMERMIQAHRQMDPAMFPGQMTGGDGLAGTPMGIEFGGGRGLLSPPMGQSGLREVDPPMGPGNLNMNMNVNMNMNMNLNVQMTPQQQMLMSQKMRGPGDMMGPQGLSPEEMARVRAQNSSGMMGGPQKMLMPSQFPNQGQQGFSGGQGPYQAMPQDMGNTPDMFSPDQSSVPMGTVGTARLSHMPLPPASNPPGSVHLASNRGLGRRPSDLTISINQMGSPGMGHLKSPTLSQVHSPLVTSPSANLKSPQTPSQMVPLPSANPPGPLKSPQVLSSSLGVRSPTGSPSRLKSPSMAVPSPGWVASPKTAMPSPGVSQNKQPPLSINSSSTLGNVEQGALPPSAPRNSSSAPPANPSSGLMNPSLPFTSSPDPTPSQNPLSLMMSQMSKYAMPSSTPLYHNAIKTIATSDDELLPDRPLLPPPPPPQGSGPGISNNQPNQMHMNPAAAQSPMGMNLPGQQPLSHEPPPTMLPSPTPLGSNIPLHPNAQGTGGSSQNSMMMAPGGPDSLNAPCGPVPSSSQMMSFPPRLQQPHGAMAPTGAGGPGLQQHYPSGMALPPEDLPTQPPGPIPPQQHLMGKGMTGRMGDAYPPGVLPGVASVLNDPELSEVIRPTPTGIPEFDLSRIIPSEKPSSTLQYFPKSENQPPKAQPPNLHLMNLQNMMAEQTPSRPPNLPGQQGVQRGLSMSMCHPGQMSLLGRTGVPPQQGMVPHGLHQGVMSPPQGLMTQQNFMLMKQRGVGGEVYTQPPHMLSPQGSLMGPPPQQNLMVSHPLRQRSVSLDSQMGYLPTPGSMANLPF
B2: B-cell CLL/lymphoma 9-like protein (Mus musculus), Q67FY2 (parent)
chain: B1 partner
partner: B1 chain
B3: WW domain-containing oxidoreductase (Homo sapiens), Q9NZC7 (parent)
chain: B1 chain
partner: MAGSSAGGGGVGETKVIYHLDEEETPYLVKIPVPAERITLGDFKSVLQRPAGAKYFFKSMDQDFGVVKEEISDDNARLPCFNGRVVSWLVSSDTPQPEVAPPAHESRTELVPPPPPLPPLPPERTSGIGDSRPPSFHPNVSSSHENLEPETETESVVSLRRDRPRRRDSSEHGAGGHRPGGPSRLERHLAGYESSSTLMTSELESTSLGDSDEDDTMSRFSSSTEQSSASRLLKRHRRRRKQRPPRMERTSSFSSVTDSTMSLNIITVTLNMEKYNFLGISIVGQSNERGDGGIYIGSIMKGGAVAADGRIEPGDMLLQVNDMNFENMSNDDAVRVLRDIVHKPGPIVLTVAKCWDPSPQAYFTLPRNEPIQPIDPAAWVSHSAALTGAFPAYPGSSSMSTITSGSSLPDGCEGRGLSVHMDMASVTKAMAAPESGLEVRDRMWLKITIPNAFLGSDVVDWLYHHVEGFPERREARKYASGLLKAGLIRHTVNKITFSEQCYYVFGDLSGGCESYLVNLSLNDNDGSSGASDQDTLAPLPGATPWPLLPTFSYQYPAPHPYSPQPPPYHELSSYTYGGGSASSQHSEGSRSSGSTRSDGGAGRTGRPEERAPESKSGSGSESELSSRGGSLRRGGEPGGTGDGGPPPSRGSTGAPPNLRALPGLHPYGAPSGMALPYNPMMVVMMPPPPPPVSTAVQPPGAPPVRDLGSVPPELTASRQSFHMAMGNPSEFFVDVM
B4: Segment polarity protein dishevelled homolog DVL-2 (Mus musculus), Q60838 (parent)
chain: B3 partner
partner: B1 chain

Variants of: B1
Conditions: with bcl9l_mouse Bcl9l, Q67FY2

Variant | effect of a mutation on the interaction
Y33R | decreasing interaction

Variants of: B2
Conditions: with wwox_human WWOX, Q9NZC7

Variant | effect of a mutation on the interaction
Y561A | disrupting interaction

Variants of: B3
Conditions: with dvl2_mouse Dvl2, Q60838

Variant | effect of a mutation on the interaction
Y33R | decreasing interaction

Variants of: B4
Conditions: with wwox_human WWOX, Q9NZC7

Variant | effect of a mutation on the interaction
Y568A | decreasing interaction
